# From US20140363428A1 (Chugai, published 2014)
# Molecular target: T1, soluble human FcRn (human, UniProt P55899 24-297; P61769 21-119)
# T1 construct: Heterodimer of alpha chain and beta2-microglobulin; also called hFcRn
# Experiment: SPR (Biacore), pH 7.0
row,Binder,Kd
1,"Fv-4-F11 (antibody, human IgG1, kappa, M252Y/N434Y (EU)) heavy: not shown light: DIQMTQSPSSLSASVGDSVTITCQASTDISSHLNWYQQKPGKAPELLIYYGSHLLSGVPSRFSGSGSGTDFTFTISSLEAEDAATYYCGQGNRLPYTFGQGTKVEIERTVAAPSVFIFPPSDEQLKSGTASVVCLLNNFYPREAKVQWKVDNALQSGNSQESVTEQDSKDSTYSLSSTLTLSKADYEKHKVYACEVTHQGLSSPVTKSFNRGEC",330 nM
2,"Fv-4-F1078 (antibody, human IgG1, kappa) heavy: QVQLQESGPGLVKPSETLSLTCAVSGHSISHDHAWSWVRQPPGEGLEWIGFISYSGITNYNPSLQGRVTISRDNSKNTLYLQMNSLRAEDTAVYYCARSLARTTAMDYWGEGTLVTVSSASTKGPSVFPLAPSSKSTSGGTAALGCLVKDYFPEPVTVSWNSGALTSGVHTFPAVLQSSGLYSLSSVVTVPSSSLGTQTYICNVNHKPSNTKVDKKVEPKSCDKTHTCPPCPAPELLGGPSVFLFPPKPKDTLYISRTPEVTCVVVDVSHEDPEVKFNWYVDGVEVHNAKTKPREEQYNSTYRVVSVLTVLHQDWLNGKEYKCKVSNKALPAPIEKTISKAKGQPREPQVYTLPPSRDELTKNQVSLTCLVKGFYPSDIAVNWSSNGQPENNYKTTPPVLDSDGSFFLYSKLTVDKSRWQQGNVFSCSVMHEALHYHYTQKSLSLSP light: DIQMTQSPSSLSASVGDSVTITCQASTDISSHLNWYQQKPGKAPELLIYYGSHLLSGVPSRFSGSGSGTDFTFTISSLEAEDAATYYCGQGNRLPYTFGQGTKVEIERTVAAPSVFIFPPSDEQLKSGTASVVCLLNNFYPREAKVQWKVDNALQSGNSQESVTEQDSKDSTYSLSSTLTLSKADYEKHKVYACEVTHQGLSSPVTKSFNRGEC",470 nM
3,"Fv-4-F1077 (antibody, human IgG1, kappa, additional N-glycosylation found (++)) heavy: QVQLQESGPGLVKPSETLSLTCAVSGHSISHDHAWSWVRQPPGEGLEWIGFISYSGITNYNPSLQGRVTISRDNSKNTLYLQMNSLRAEDTAVYYCARSLARTTAMDYWGEGTLVTVSSASTKGPSVFPLAPSSKSTSGGTAALGCLVKDYFPEPVTVSWNSGALTSGVHTFPAVLQSSGLYSLSSVVTVPSSSLGTQTYICNVNHKPSNTKVDKKVEPKSCDKTHTCPPCPAPELLGGPSVFLFPPKPNDTLYISRTPEVTCVVVDVSHEDPEVKFNWYVDGVEVHNAKTKPREEQYNSTYRVVSVLTVLHQDWLNGKEYKCKVSNKALPAPIEKTISKAKGQPREPQVYTLPPSRDELTKNQVSLTCLVKGFYPSDIAVEWESNGQPENNYKTTPPVLDSDGSFFLYSKLTVDKSRWQQGNVFSCSVMHEALHYHYTQKSLSLSP light: DIQMTQSPSSLSASVGDSVTITCQASTDISSHLNWYQQKPGKAPELLIYYGSHLLSGVPSRFSGSGSGTDFTFTISSLEAEDAATYYCGQGNRLPYTFGQGTKVEIERTVAAPSVFIFPPSDEQLKSGTASVVCLLNNFYPREAKVQWKVDNALQSGNSQESVTEQDSKDSTYSLSSTLTLSKADYEKHKVYACEVTHQGLSSPVTKSFNRGEC",2000 nM

# Now from value to binder:
row,Kd,Binder
1,280 nM,"Fv-4-F1082 (antibody, human IgG1, kappa, additional N-glycosylation found (+)) heavy: QVQLQESGPGLVKPSETLSLTCAVSGHSISHDHAWSWVRQPPGEGLEWIGFISYSGITNYNPSLQGRVTISRDNSKNTLYLQMNSLRAEDTAVYYCARSLARTTAMDYWGEGTLVTVSSASTKGPSVFPLAPSSKSTSGGTAALGCLVKDYFPEPVTVSWNSGALTSGVHTFPAVLQSSGLYSLSSVVTVPSSSLGTQTYICNVNHKPSNTKVDKKVEPKSCDKTHTCPPCPAPELLGGPSVFLFPPKPKDTLYISRTPEVTCVVVDVSHEDPEVKFNWYVDGVEVHNAKTKPREEQYNSTYRVVSVLTVLHQDWLNGKEYKCKVSNKALPAPIEKTISKAKGQPREPQVYTLPPSRDELTKNQVSLTCLVKGFYPSDIAVEWESNGQPENNYKTTPPVLDSDGSFFLYSKLTVDKSRWQQGNVFSCSVMHEALHYHYTNKSLSLSP light: DIQMTQSPSSLSASVGDSVTITCQASTDISSHLNWYQQKPGKAPELLIYYGSHLLSGVPSRFSGSGSGTDFTFTISSLEAEDAATYYCGQGNRLPYTFGQGTKVEIERTVAAPSVFIFPPSDEQLKSGTASVVCLLNNFYPREAKVQWKVDNALQSGNSQESVTEQDSKDSTYSLSSTLTLSKADYEKHKVYACEVTHQGLSSPVTKSFNRGEC"
2,620 nM,"Fv-4-F1081 (antibody, human IgG1, kappa, additional N-glycosylation found (++)) heavy: QVQLQESGPGLVKPSETLSLTCAVSGHSISHDHAWSWVRQPPGEGLEWIGFISYSGITNYNPSLQGRVTISRDNSKNTLYLQMNSLRAEDTAVYYCARSLARTTAMDYWGEGTLVTVSSASTKGPSVFPLAPSSKSTSGGTAALGCLVKDYFPEPVTVSWNSGALTSGVHTFPAVLQSSGLYSLSSVVTVPSSSLGTQTYICNVNHKPSNTKVDKKVEPKSCDKTHTCPPCPAPELLGGPSVFLFPPKPKDTLYISRTPEVTCVVVDVSHEDPEVKFNWYVDGVEVHNAKTKPREEQYNSTYRVVSVLTVLHQDWLNGKEYKCKVSNKALPAPIEKTISKAKGQPREPQVYTLPPSRDELTKNQVSLTCLVKGFYPSDIAVEWESNGQPENNYKTTPPVLDSDGSFFLYSKLTVDKSRWQQGNVFSCSVMHEALHYHNTTKSLSLSP light: DIQMTQSPSSLSASVGDSVTITCQASTDISSHLNWYQQKPGKAPELLIYYGSHLLSGVPSRFSGSGSGTDFTFTISSLEAEDAATYYCGQGNRLPYTFGQGTKVEIERTVAAPSVFIFPPSDEQLKSGTASVVCLLNNFYPREAKVQWKVDNALQSGNSQESVTEQDSKDSTYSLSSTLTLSKADYEKHKVYACEVTHQGLSSPVTKSFNRGEC"
3,320 nM,"Fv-4-F1080 (antibody, human IgG1, kappa, additional N-glycosylation found (++)) heavy: QVQLQESGPGLVKPSETLSLTCAVSGHSISHDHAWSWVRQPPGEGLEWIGFISYSGITNYNPSLQGRVTISRDNSKNTLYLQMNSLRAEDTAVYYCARSLARTTAMDYWGEGTLVTVSSASTKGPSVFPLAPSSKSTSGGTAALGCLVKDYFPEPVTVSWNSGALTSGVHTFPAVLQSSGLYSLSSVVTVPSSSLGTQTYICNVNHKPSNTKVDKKVEPKSCDKTHTCPPCPAPELLGGPSVFLFPPKPKDTLYISRTPEVTCVVVDVSHEDPEVKFNWYVDGVEVHNAKTKPREEQYNSTYRVVSVLTVLHQDWLNGKEYKCKVSNKALPAPIEKTISKAKGQPREPQVYTLPPSRDELTKNQVSLTCLVKGFYPSDIAVEWESNGQPENNYKTTPPVLDSDGSFFLYSKLTVDKSRWQQGNVFNCSVMHEALHYHYTQKSLSLSP light: DIQMTQSPSSLSASVGDSVTITCQASTDISSHLNWYQQKPGKAPELLIYYGSHLLSGVPSRFSGSGSGTDFTFTISSLEAEDAATYYCGQGNRLPYTFGQGTKVEIERTVAAPSVFIFPPSDEQLKSGTASVVCLLNNFYPREAKVQWKVDNALQSGNSQESVTEQDSKDSTYSLSSTLTLSKADYEKHKVYACEVTHQGLSSPVTKSFNRGEC"
4,340 nM,"Fv-4-F1079 (antibody, human IgG1, kappa) heavy: QVQLQESGPGLVKPSETLSLTCAVSGHSISHDHAWSWVRQPPGEGLEWIGFISYSGITNYNPSLQGRVTISRDNSKNTLYLQMNSLRAEDTAVYYCARSLARTTAMDYWGEGTLVTVSSASTKGPSVFPLAPSSKSTSGGTAALGCLVKDYFPEPVTVSWNSGALTSGVHTFPAVLQSSGLYSLSSVVTVPSSSLGTQTYICNVNHKPSNTKVDKKVEPKSCDKTHTCPPCPAPELLGGPSVFLFPPKPKDTLYISRTPEVTCVVVDVSHEDPEVKFNWYVDGVEVHNAKTKPREEQYNSTYRVVSVLTVLHQDWLNGKEYKCKVSNKALPAPIEKTISKAKGQPREPQVYTLPPSRDELTKNQVSLTCLVKGFYPSDIAVEWNSSGQPENNYKTTPPVLDSDGSFFLYSKLTVDKSRWQQGNVFSCSVMHEALHYHYTQKSLSLSP light: DIQMTQSPSSLSASVGDSVTITCQASTDISSHLNWYQQKPGKAPELLIYYGSHLLSGVPSRFSGSGSGTDFTFTISSLEAEDAATYYCGQGNRLPYTFGQGTKVEIERTVAAPSVFIFPPSDEQLKSGTASVVCLLNNFYPREAKVQWKVDNALQSGNSQESVTEQDSKDSTYSLSSTLTLSKADYEKHKVYACEVTHQGLSSPVTKSFNRGEC"

# Molecular target: T1, soluble human FcRn
# Experiment: SPR (Biacore), pH 6.0
row,Kd,Binder
1,130 nM,F1761 (antibody) heavy: QVQLQESGPGLVKPSETLSLTCAVSGHSISHDHAWSWVRQPPGEGLEWIGFISYSGITNYNPSLQGRVTISRDNSKNTLYLQMNSLRAEDTAVYYCARSLARTTAMDYWGEGTLVTVSSASTKGPSVFPLAPSSKSTSGGTAALGCLVKDYFPEPVTVSWNSGALTSGVHTFPAVLQSSGLYSLSSVVTVPSSSLGTQTYICNVNHKPSNTKVDKKVEPKSCDKTHTCPPCPAPELLGGPSVFLFPPKPKDTLMISRTPEVTCVVVDVSHEDPEVKFNWYVDGVEVHNAKTKPREEQYNSTYRVVSVLTVLHQDWLNGKEYKCKVSNKALPAPIEKTISKAKGQPREPQVYTLPPSRDELTKNQVSLTCLVKGFYPSDIAVEWESNGQPENNYKTTPPVLDSDGSFFLYSKLTVDKSRWQQGNVFSCSVMHEALDYHTTRKDLSLSP light: DIQMTQSPSSLSASVGDSVTITCQASTDISSHLNWYQQKPGKAPELLIYYGSHLLSGVPSRFSGSGSGTDFTFTISSLEAEDAATYYCGQGNRLPYTFGQGTKVEIERTVAAPSVFIFPPSDEQLKSGTASVVCLLNNFYPREAKVQWKVDNALQSGNSQESVTEQDSKDSTYSLSSTLTLSKADYEKHKVYACEVTHQGLSSPVTKSFNRGEC
2,110 nM,F1763 (antibody) heavy: QVQLQESGPGLVKPSETLSLTCAVSGHSISHDHAWSWVRQPPGEGLEWIGFISYSGITNYNPSLQGRVTISRDNSKNTLYLQMNSLRAEDTAVYYCARSLARTTAMDYWGEGTLVTVSSASTKGPSVFPLAPSSKSTSGGTAALGCLVKDYFPEPVTVSWNSGALTSGVHTFPAVLQSSGLYSLSSVVTVPSSSLGTQTYICNVNHKPSNTKVDKKVEPKSCDKTHTCPPCPAPELLGGPSVFLFPPKPKDTLMISRTPEVTCVVVDVSHEDPEVKFNWYVDGVEVHNAKTKPREEQYNSTYRVVSVLTVLHQDWLNGKEYKCKVSNKALPAPIEKTISKAKGQPREPQVYTLPPSRDELTKNQVSLTCLVKGFYPSDIAVEWESNGQPENNYKTTPPVLDSDGSFFLYSKLTVDKSRWQQGNVFSCSVMHEALDYHTTKKDLSLSP light: DIQMTQSPSSLSASVGDSVTITCQASTDISSHLNWYQQKPGKAPELLIYYGSHLLSGVPSRFSGSGSGTDFTFTISSLEAEDAATYYCGQGNRLPYTFGQGTKVEIERTVAAPSVFIFPPSDEQLKSGTASVVCLLNNFYPREAKVQWKVDNALQSGNSQESVTEQDSKDSTYSLSSTLTLSKADYEKHKVYACEVTHQGLSSPVTKSFNRGEC
